In series [1] the target is T1, CTLA4.B3.B6 I-OnuI HE variant (Ophiostoma novo-ulmi).
T1 chain: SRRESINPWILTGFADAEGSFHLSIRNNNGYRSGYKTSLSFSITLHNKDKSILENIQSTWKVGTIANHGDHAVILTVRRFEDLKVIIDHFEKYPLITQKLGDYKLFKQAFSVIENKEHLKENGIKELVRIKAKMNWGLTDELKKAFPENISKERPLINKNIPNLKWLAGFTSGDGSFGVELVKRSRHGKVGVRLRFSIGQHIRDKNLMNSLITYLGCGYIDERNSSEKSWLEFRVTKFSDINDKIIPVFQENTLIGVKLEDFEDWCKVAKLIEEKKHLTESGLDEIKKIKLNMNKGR
The experiment in a line: cell_activity; chromosomal iRFP reporter in HEK 293T. How it is done:
(§1) The activity of reprogrammed I-OnuI HEs that target exon 2 of the CTLA4 gene was measured using a chromosomally integrated fluorescent reporter system (Certo et. al., 2011). Fully reprogrammed I-OnuI HEs that bind and cleave the CTLA4 target sequence (SEQ ID NO: 13) were cloned into mammalian expression plasmids and then individually transfected into a HEK 293T […] cell line that contained the CTLA4 target sequence upstream of an out-of-frame gene encoding the fluorescent iRFP protein. Cleavage of the embedded target site by the HE and the accumulation of indels following DNA repair via the non-homologous end joining (NHEJ) pathway results in approximately one out of three repaired loci placing the fluorescent reporter gene back “in-frame”. The percentage of iRFP fluorescing HEK 293T cells is therefore used a readout of endonuclease activity at the chromosomally embedded target sequence. […] FIG. 3 (left panel).
(§2) A secondary I-OnuI variant library was generated by performing random mutagenesis on the CTLA4.B3 HE variant (SEQ ID NO: 6). Display-based flow sorting was performed under more stringent cleavage conditions to isolate variants with improved catalytic efficiency. […] FIG. 3 (middle panel). […] FIG. 3 (right panel).

For series [2], the target named is T2, CTLA4.B3.B6.D5 I-OnuI HE variant (Ophiostoma novo-ulmi).
T2 chain: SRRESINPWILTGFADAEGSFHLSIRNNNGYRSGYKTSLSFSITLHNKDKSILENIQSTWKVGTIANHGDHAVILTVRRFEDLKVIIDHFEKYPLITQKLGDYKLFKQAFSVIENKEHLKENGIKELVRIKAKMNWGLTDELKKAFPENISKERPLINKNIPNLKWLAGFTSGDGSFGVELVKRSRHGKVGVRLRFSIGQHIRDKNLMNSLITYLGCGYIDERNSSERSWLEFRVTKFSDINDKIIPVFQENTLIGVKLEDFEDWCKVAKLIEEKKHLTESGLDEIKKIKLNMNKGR
The series is described as above. As to the method: as §1, §2

Series [3] deals with T2, CTLA4.B3.B6.D5 I-OnuI HE variant. Put plainly: flow; sub-nanomolar affinity; yeast surface affinity titration, value only in figure. The settings on record: tags: yeast surface display.

B1: CTLA4 exon 2 HE target site (dsDNA)
DNA 1: TGGAGATGCATACTCACACACA
DNA 2: TGTGTGTGAGTATGCATCTCCA
The term Kd denotes the equilibrium constant for the complex coming apart. Lower therefore signals a tighter complex. As to B1, the figures for the activity in series [1] and in series [2] were about 3 fold vs CTLA4.B3 and about 2 fold vs CTLA4.B3.B6, respectively. The molecule also came in with a Kd in series [3] of under 1 nM.

The values are drawn from patent US20210002621, “CTLA4 HOMING ENDONUCLEASE VARIANTS, COMPOSITIONS, AND METHODS OF USE” (bluebird bio, Inc., published 2021).
